Test results reported in patent publication US20240270860A1.

Assays:
Experiment in all cases: peptide-array ELISA (CYS.S) [Continued]
2LS2…2RPGWY2 = target: T1, 2LS2…2RPGWY2
T1 sequence (peptide, 2 = Cys(ACM)): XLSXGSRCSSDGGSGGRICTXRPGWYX

2LS2…2RPGWY = target: T2, 2LS2…2RPGWY
T2 sequence (peptide, 2 = Cys(ACM)): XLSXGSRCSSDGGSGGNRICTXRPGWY

[1] = target: T3, 2TREQNRI2…
T3 sequence (peptide, 2 = Cys(ACM)): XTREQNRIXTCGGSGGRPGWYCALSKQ

2…2RPGWY2AL = target: T4, 2…2RPGWY2AL
T4 sequence (peptide, 2 = Cys(ACM)): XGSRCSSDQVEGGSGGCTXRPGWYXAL

2…2RPGWY2A = target: T5, 2…2RPGWY2A
T5 sequence (peptide, 2 = Cys(ACM)): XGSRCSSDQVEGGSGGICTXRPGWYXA

2…2RPGWY = target: T6, 2…2RPGWY
T6 sequence (peptide, 2 = Cys(ACM)): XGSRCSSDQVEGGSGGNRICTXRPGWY

[2] = target: T7, 2…
T7 sequence (peptide, 2 = Cys(ACM)): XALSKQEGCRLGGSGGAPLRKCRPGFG

[3] = target: T8, 2…; remark: listed apart in the source
T8 sequence (peptide, 2 = Cys(ACM)): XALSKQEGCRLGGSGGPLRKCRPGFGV

E2LS2…2RPGWY2A = target: T9, E2LS2…2RPGWY2A
T9 sequence (peptide, 2 = Cys(ACM)): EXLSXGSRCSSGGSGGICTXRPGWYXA

E2LS2…2RPGWY2 = target: T10, E2LS2…2RPGWY2
T10 sequence (peptide, 2 = Cys(ACM)): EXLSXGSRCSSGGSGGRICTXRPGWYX

[4] = target: T11, EGCRL2…2…
T11 sequence (peptide, 2 = Cys(ACM)): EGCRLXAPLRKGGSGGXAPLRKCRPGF

[5] = target: T12, KQEGCRL2…
T12 sequence (peptide, 2 = Cys(ACM)): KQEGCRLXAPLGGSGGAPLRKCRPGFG

LS2…2RPGWY2 = target: T13, LS2…2RPGWY2
T13 sequence (peptide, 2 = Cys(ACM)): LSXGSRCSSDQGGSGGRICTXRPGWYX

[6] = target: T14, NRI2…
T14 sequence (peptide, 2 = Cys(ACM)): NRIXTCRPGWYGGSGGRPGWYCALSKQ

PE2LS2…2RPGWY = target: T15, PE2LS2…2RPGWY
T15 sequence (peptide, 2 = Cys(ACM)): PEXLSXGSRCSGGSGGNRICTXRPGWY

[7] = target: T16, QEGCRL2…2…
T16 sequence (peptide, 2 = Cys(ACM)): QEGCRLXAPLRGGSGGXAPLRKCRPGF

[8] = target: T17, QEGCRL2…
T17 sequence (peptide, 2 = Cys(ACM)): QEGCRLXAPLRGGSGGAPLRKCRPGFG

[9] = target: T18, QEGCRL2…; remark: listed apart in the source
T18 sequence (peptide, 2 = Cys(ACM)): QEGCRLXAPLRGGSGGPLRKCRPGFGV

[10] = target: T19, QEGCRL2…; remark: listed apart in the source
T19 sequence (peptide, 2 = Cys(ACM)): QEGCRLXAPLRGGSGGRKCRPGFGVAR

[11] = target: T20, QNRI2…
T20 sequence (peptide, 2 = Cys(ACM)): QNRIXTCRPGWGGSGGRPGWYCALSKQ

[12] = target: T21, REQNRI2…
T21 sequence (peptide, 2 = Cys(ACM)): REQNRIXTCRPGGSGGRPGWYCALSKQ

S2…2RPGWY2AL = target: T22, S2…2RPGWY2AL
T22 sequence (peptide, 2 = Cys(ACM)): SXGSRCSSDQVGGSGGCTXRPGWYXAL

[13] = target: T23, SKQEGCRL2APGGSGG2…
T23 sequence (peptide, 2 = Cys(ACM)): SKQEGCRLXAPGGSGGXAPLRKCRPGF

[14] = target: T24, SKQEGCRL2…
T24 sequence (peptide, 2 = Cys(ACM)): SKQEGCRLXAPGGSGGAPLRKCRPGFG

[15] = target: T25, SKQEGCRL2…; remark: listed apart in the source
T25 sequence (peptide, 2 = Cys(ACM)): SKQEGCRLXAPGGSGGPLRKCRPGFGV

[16] = target: T26, SKQEGCRL2…; remark: listed apart in the source
T26 sequence (peptide, 2 = Cys(ACM)): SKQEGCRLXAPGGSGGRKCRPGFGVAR

VPE2LS2…2RPGWY2A = target: T27, VPE2LS2…2RPGWY2A
T27 sequence (peptide, 2 = Cys(ACM)): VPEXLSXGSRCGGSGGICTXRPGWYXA

VPE2LS2…2RPGWY2 = target: T28, VPE2LS2…2RPGWY2
T28 sequence (peptide, 2 = Cys(ACM)): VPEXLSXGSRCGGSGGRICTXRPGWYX

[17] = target: T29, WY2…
T29 sequence (peptide, 2 = Cys(ACM)): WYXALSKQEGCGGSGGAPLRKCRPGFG

[18] = target: T30, WY2…; remark: listed apart in the source
T30 sequence (peptide, 2 = Cys(ACM)): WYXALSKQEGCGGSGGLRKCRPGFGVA

[19] = target: T31, Y2…
T31 sequence (peptide, 2 = Cys(ACM)): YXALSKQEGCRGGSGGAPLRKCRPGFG

[20] = target: T32, Y2…; remark: listed apart in the source
T32 sequence (peptide, 2 = Cys(ACM)): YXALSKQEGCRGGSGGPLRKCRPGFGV

[21] = target: T33, …2AGGSGG2…
T33 sequence (peptide, 2 = Cys(ACM)): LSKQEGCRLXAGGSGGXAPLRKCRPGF

…2RPGWY2AL = target: T34, …2RPGWY2AL
T34 sequence (peptide, 2 = Cys(ACM)): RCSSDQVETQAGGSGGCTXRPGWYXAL

…2RPGWY2A = target: T35, …2RPGWY2A
T35 sequence (peptide, 2 = Cys(ACM)): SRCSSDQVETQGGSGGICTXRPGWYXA

…2RPGWY2 = target: T36, …2RPGWY2
T36 sequence (peptide, 2 = Cys(ACM)): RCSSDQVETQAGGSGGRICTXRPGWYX

…2RPGWY = target: T37, …2RPGWY
T37 sequence (peptide, 2 = Cys(ACM)): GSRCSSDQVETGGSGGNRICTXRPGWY

[22] = target: T38, …2…
T38 sequence (peptide, 2 = Cys(ACM)): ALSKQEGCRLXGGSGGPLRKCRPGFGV

[23] = target: T39, …2…; remark: listed apart in the source
T39 sequence (peptide, 2 = Cys(ACM)): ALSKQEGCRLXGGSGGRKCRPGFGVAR

[24] = target: T40, …2…; remark: listed apart in the source
T40 sequence (peptide, 2 = Cys(ACM)): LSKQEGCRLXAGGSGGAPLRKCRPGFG

[25] = target: T41, …2…; remark: listed apart in the source
T41 sequence (peptide, 2 = Cys(ACM)): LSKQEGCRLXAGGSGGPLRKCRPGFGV

B1: antagonistic TNFR2 antibody TNFRAB1 (antibody, V domains shown)
VH: EVQLQESGGGLVKPGGSLKLSCAASGFTFSSYVMSWVRQTPEKRLEWVATISSGGSYTYYPDSVKGRFTISRDNAKNTLYLQMSSLRSEDTAMYYCARQRVDGYSSYWYFDVWGAGTAVTVSS
VL: DIVLTQSPAIMSASPGEKVTITCSASSSVYYMYWFQQKPGTSPKLWIYSTSNLASGVPVRFSGSGSGTSYSLTISRMEAEDAATYYCQQRRNYPYTFGGGTKLEIKR
- Raw luminescence data (2LS2…2RPGWY2): 436
- Raw luminescence data (2LS2…2RPGWY): 878
- Raw luminescence data [1]: 101
- Raw luminescence data (2…2RPGWY2AL): 480
- Raw luminescence data (2…2RPGWY2A): 402
- Raw luminescence data (2…2RPGWY): 588
- Raw luminescence data [2]: 418
- Raw luminescence data [3]: 414
- Raw luminescence data (E2LS2…2RPGWY2A): 454
- Raw luminescence data (E2LS2…2RPGWY2): 478
- Raw luminescence data [4]: 604
- Raw luminescence data [5]: 242
- Raw luminescence data (LS2…2RPGWY2): 546
- Raw luminescence data [6]: 426
- Raw luminescence data (PE2LS2…2RPGWY): 928
- Raw luminescence data [7]: 570
- Raw luminescence data [8]: 340
- Raw luminescence data [9]: 558
- Raw luminescence data [10]: 426
- Raw luminescence data [11]: 240
- Raw luminescence data [12]: 228
- Raw luminescence data (S2…2RPGWY2AL): 538
- Raw luminescence data [13]: 507
- Raw luminescence data [14]: 220
- Raw luminescence data [15]: 369
- Raw luminescence data [16]: 430
- Raw luminescence data (VPE2LS2…2RPGWY2A): 540
- Raw luminescence data (VPE2LS2…2RPGWY2): 478
- Raw luminescence data [17]: 534
- Raw luminescence data [18]: 336
- Raw luminescence data [19]: 553
- Raw luminescence data [20]: 381
- Raw luminescence data [21]: 529
- Raw luminescence data (…2RPGWY2AL): 319
- Raw luminescence data (…2RPGWY2A): 388
- Raw luminescence data (…2RPGWY2): 543
- Raw luminescence data (…2RPGWY): 587
- Raw luminescence data [22]: 446
- Raw luminescence data [23]: 455
- Raw luminescence data [24]: 253
- Raw luminescence data [25]: 434
